T1: synthetic ACC2 peptide containing P450
T1 chain: ERIGFPLMIKASEGGGGK

T2: synthetic ACC2 peptide containing P2131
T2 chain: AGQVWFPDSAYKTAQ

T3: control ACC2 proline-containing peptide (P966)
T3 chain: ARLELDDPSKVHPAE

B1: HA-PHD3 (hemagglutinin-tagged prolyl hydroxylase 3, transiently overexpressed in 293T cells) (protein)
chain: MPLGHIMRLDLEKIALEYIVPCLHEVGFCYLDNFLGEVVGDCVLERVKQLHCTGALRDGQLAGPRAGVSKRHLRGDQITWIGGNEEGCEAISFLLSLIDRLVLYCGSRLGKYYVKERSKAMVACYPGNGTGYVRHVDNPNGDGRCITCIYYLNKNWDAKLHGGILRIFPEGKSFIADVEPIFDRLLFFWSDRRNPHEVQPSYATRYAMTVWYFDAEERAEAKKKFRNLTRKTESALTED
B2: recombinant PHD3 (in vitro hydroxylation assay) (protein)
chain: MPLGHIMRLDLEKIALEYIVPCLHEVGFCYLDNFLGEVVGDCVLERVKQLHCTGALRDGQLAGPRAGVSKRHLRGDQITWIGGNEEGCEAISFLLSLIDRLVLYCGSRLGKYYVKERSKAMVACYPGNGTGYVRHVDNPNGDGRCITCIYYLNKNWDAKLHGGILRIFPEGKSFIADVEPIFDRLLFFWSDRRNPHEVQPSYATRYAMTVWYFDAEERAEAKKKFRNLTRKTESALTED

How the values were obtained:
[1] = biological target: ACC2 P450A point mutant
[2] = biological target: acetyl-CoA carboxylase 2 (ACC2), wild type
[3] = biological target: T1, synthetic ACC2 peptide containing P450
[4] = biological target: T2, synthetic ACC2 peptide containing P2131
[5] = biological target: T3, control ACC2 proline-containing peptide …

Protein	in vitro ACC activity assay ([14C]malonyl-CoA from [14C]bicarbonate, 293T lysates) [1]	in vitro ACC activity assay ([14C]malonyl-CoA from [14C]bicarbonate, 293T lysates) [2]	reconstituted in vitro radioactivity-based hydroxylation assay ([14C]CO2 release) [3]	reconstituted in vitro radioactivity-based hydroxylation assay ([14C]CO2 release) [4]	reconstituted in vitro radioactivity-based hydroxylation assay ([14C]CO2 release) [5]
B1	had no effect on the P450A variant	PHD3 overexpression amplified wild-type ACC2 activity			
B2			recombinant PHD3 was shown to hydroxylate a synthetic ACC2 peptide containing P450	but not a peptide containing P2131	but not a peptide containing P2131 or a control ACC2 proline-containing peptide (P966)

— patent US20180306788
